Results on 18 substances are retold here after the Human Domainome abundance scans (Beltran et al. 2025).

± gives the uncertainty stated by the source.

The series can be described thus: abundance fitness (aPCA) (normalised: wild type 0, dead -1); higher = more abundant; growth selection in yeast, the domain comes from the species named. The following applies: Homo sapiens.
“Lipoamide acyltransferase component of branched-chain alpha-keto acid dehydrogenase complex, mitochondrial N207V, P11182” came in with an abundance fitness of -0.11 ± 0.042. In the case of “Lipoamide acyltransferase component of branched-chain alpha-keto acid dehydrogenase complex, mitochondrial N207W, P11182” it was -0.183 ± 0.041; in that of “Lipoamide acyltransferase component of branched-chain alpha-keto acid dehydrogenase complex, mitochondrial N207Y, P11182”, -0.453 ± 0.23; in that of “Lipoamide acyltransferase component of branched-chain alpha-keto acid dehydrogenase complex, mitochondrial P175A, P11182”, 0.023 ± 0.044. With “Lipoamide acyltransferase component of branched-chain alpha-keto acid dehydrogenase complex, mitochondrial P175C, P11182” the figure was -0.151 ± 0.062; with “Lipoamide acyltransferase component of branched-chain alpha-keto acid dehydrogenase complex, mitochondrial P175D, P11182”, 0.038 ± 0.048; with “Lipoamide acyltransferase component of branched-chain alpha-keto acid dehydrogenase complex, mitochondrial P175E, P11182”, 0.037 ± 0.047. With “Lipoamide acyltransferase component of branched-chain alpha-keto acid dehydrogenase complex, mitochondrial P175F, P11182” the figure was -0.098 ± 0.064; with “Lipoamide acyltransferase component of branched-chain alpha-keto acid dehydrogenase complex, mitochondrial P175G, P11182”, -0.268 ± 0.035. “Lipoamide acyltransferase component of branched-chain alpha-keto acid dehydrogenase complex, mitochondrial P175I, P11182” returned an abundance fitness of -0.133 ± 0.065. The substance “Lipoamide acyltransferase component of branched-chain alpha-keto acid dehydrogenase complex, mitochondrial P175K, P11182” had an abundance fitness of 0.024 ± 0.042. With “Lipoamide acyltransferase component of branched-chain alpha-keto acid dehydrogenase complex, mitochondrial P175L, P11182” the figure was -0.119 ± 0.056; with “Lipoamide acyltransferase component of branched-chain alpha-keto acid dehydrogenase complex, mitochondrial P175M, P11182”, -0.051 ± 0.081; with “Lipoamide acyltransferase component of branched-chain alpha-keto acid dehydrogenase complex, mitochondrial P175N, P11182”, -0.096 ± 0.053. Regarding “Lipoamide acyltransferase component of branched-chain alpha-keto acid dehydrogenase complex, mitochondrial P175Q, P11182”, the abundance fitness was -0.008 ± 0.048. In the case of “Lipoamide acyltransferase component of branched-chain alpha-keto acid dehydrogenase complex, mitochondrial P175R, P11182” it was -0.16 ± 0.041. In the case of “Lipoamide acyltransferase component of branched-chain alpha-keto acid dehydrogenase complex, mitochondrial P175S, P11182” it was -0.127 ± 0.044.

As to “Lipoamide acyltransferase component of branched-chain alpha-keto acid dehydrogenase complex, mitochondrial P175T, P11182”, the abundance fitness is -0.016 ± 0.052.
